In patent US11994512B2, “Single-cell genomic methods to generate ex vivo cell systems that recapitulate in vivo biology with improved fidelity” (Massachusetts Institute of Technology, priority 2018, dated 2024):

B1: Q91Y74 (protein, UniProt Q91Y74 1-333, looked up)
chain: MTSKSHWKLLALALVLVVVMVWYSISREDRYIEFFYFPISEKKEPCFQGEAERQASKIFGNRSREQPIFLQLKDYFWVKTPSTYELPFGTKGSEDLLLRVLAITSYSIPESIKSLECRRCVVVGNGHRLRNSSLGGVINKYDVVIRLNNAPVAGYEGDVGSKTTIRLFYPESAHFDPKIENNPDTLLVLVAFKAMDFHWIETILSDKKRVRKGFWKQPPLIWDVNPKQVRILNPFFMEIAADKLLSLPIQQPRKIKQKPTTGLLAITLALHLCDLVHIAGFGYPDASNKKQTIHYYEQITLKSMAGSGHNVSQEAIAIKRMLEMGAVKNLTYF
modifications: full-length
B2: Q921X9 (protein, UniProt Q921X9 1-517, looked up)
chain: MARAWGLLLAIGVVLPTWLSSTKVSSLIERISDPKDLKKLLRTRNNVLVLYSESEVAAESHLKLLSTVAQAVKGQGTVCWVDCGDAESRKLCKKMKVDLSPKDKKIELFHYQDGAFHMQYDRAVTLKSIVAFLKDPKGPPLWEEDPGAKDVVHIDSEKDFRRLLKREEKPLLMMFYAPWCSMCKRIMPHFQKAATQVRGHIVLAGMNVYPSEFENIKEEYNVRGYPTICYFEKGRFLFPYENYGSTAEDIVEWLKNPLPPQPQVPETPWADEGGSVYHLTDEDFDQFVKEHSSVLVMFHAPWCGHCKKMKPEFESAAEVLHGDAESSGVLAAVDATVNEALAGRFHISAFPTLKYFKNGEQQAVPALRTKKKFIEWMQNPEAPPPPEPTWEEQQTSVLHLVGDNFRDTLKKKKHTLVMFYAPWCPHCKKVIPHFTATADAFKEDRKIACAAVDCVKDKNQDLCQQEAVKAYPTFHYYHYGKLVEKYESDRTELGFTSFIRTLREGDLKRLEKRREEL
modifications: full-length
B3: Q99LZ3 (protein, UniProt Q99LZ3 1-223, looked up)
chain: MTEVLDLHGQDSDGGSEEMVLTPAELIEKLEQAWMNEKFAPELLESKAEIVECVMEQLEHMEENLRRAKKGDLKVSIHRMEMERIRYVLSSYLRCRLMKIEKFFPHILEKEKVRSEGEPSSLSPEEFVFAKEYMDHTETHFKNVALKHMPPNLQKVDLLRAVPKPDLDSYVFLRVKERQENILVEPEADEQRDYVIDLEVGSQHLIRYKTIAPLVASGAVQLI
modifications: full-length
B4: Q99LD8 (protein, UniProt Q99LD8 1-285, looked up)
chain: MGTPGEGLGRCSHALIRGVPESLASGEGAGAGLPALDLAKAQREHGVLGGKLRQRLGLQLLELPPEESLPLGPLLGDTAVIQGDTALITRPWSPARRPEVDGVRKALQDLGLRIVEMGDENATLDGTDVLFTGREFFVGLSKWTNHRGAEIVADTFRDFAVSTVPVSGSSHLRGLCGMGGPRTVVAGSSEAAQKAVRAMAALTDHPYASLTLPDDAASDCLFLRPGLPGATPFLLHRGGGDLPNSQEALQKLSDVTLVPVSCSELEKAGAGLSSLCLVLSTRPHC
modifications: full-length
B5: Q921T2 (protein, UniProt Q921T2 1-595, looked up)
chain: MAGERWQAEGPGEGWAIYVTPRAPIREGRRRLDPRNGDSSDAPAYGAHPSRRGRREVRFSEEPAEVYGDFEPRAAKERSPGGRRTPPEKFRPASAGEEVRESAYNLRSRPRRQRRAQEAEEMKTRRSARLEQHSQQPQLSPATSGRGLRDSPSSSEDREEDEPSSRPVTSQTASKKTLRTPEASVMNEDPISNLCRPPLRSPRLDSTYQTNGNTKTNEREATIVQQVNFFEEGETEDDLESSYSDITIRARSSDSLESRDEATPAAGNHPDSLRGLPHNQDFPAHENQPLLLTSGCQENPQEWVDRAVRMRSRMAYNNIQKSNFGNQSPSTSRPQSAIHHPNEPSVKIKWWLLGLVAILAVGLFWFFHTPAVETTAVQEFQNQMKQLQSKYQSQNEKLWKRGTTFLEKHLNSSLPRPQPAILLLTAAQDAAEVLKCLSEQIADAYSSFRSVRAIRIDGAGKAAQDSDLVKHEVDQELTDGFKNGQNAAVVHRFESLPAGSTLIFYKYCDHENAAFKDVALVLTVLLEEKTLEASLGLKEIEEKVRDFLKVKFTSSSTASSYNHMDPDKLNGLWSRISHLVLPVQPENTLKAGSCL
modifications: full-length
B6: Q920F6 (protein, UniProt Q920F6 1-1248, looked up)
chain: MGHLELLLVENFKSWRGRQVIGPFKRFTCIIGPNGSGKSNVMDALSFVMGEKTTNLRVKNIQELIHGAHTGKPVSSSASVTIIYIEDSGEEKTFTRIIRGGCSEYHFGDKPVSRSVYVAQLENIGIIVKAQNCLVFQGTVESISMKKPKERTQFFEEISTSGEFIGEYEAKKKKLQKAEEDAQFHFNVKKNVAAERKHAKIEKEEAEHYQNLLEELKINKIQLMLFQLYYNEEKINVLNTELEQMDGNLSVVKDTLSHHENIFKAKKKDYGMLTRQLQQTAKELKSVEAILNQKRPQYIKAKENTSHHLKKLDLSKKLITDNEKQCSKQEDGIRALVAELADLDRAWKSFEKQMEEKILQKGRDIELENSQLDRYKLLKEQVRRKVGIMTQQLEKLQWEQKAEKERLAFEKRRHGDTQGNLKQIKEQIEEHKKRIEKLEEYTKTCMDCLEDKKQQEEALKKEIENTKSRMSEVNEELSLIRNELQNAGIDNHEGKRQQKRAEVLEHLKRLYPDSVFGRLLDLCHPIHKKYQLAVTKLFGRYMVAIVVASEKIAKDCIRFLKAERAEPETFLALDYLDIKPINERLREIKGCKMMIDVIKTQFPQLKKVIQFVCGNGLVCETVEEARHIAFGGPERRKAVALDGTLFLKSGVISGGSSDLKHKALCWDEKELHNLRDKRSQLVQELKELMKTLRKETDLKQIQTLVQGTNTRLKYSQNELEMIKKKHLATFYREQSQLQSELLNIDSQCTMLSEGINKQQQKIEEFQDKIDEVEDDIFQDFCEEIGVENIREFENKHVKQQQENDQKRLEFEKQKTRLNIQLEYSRNQLKKKLNNIDTLKTTIQKGKEDIDNLKKTEEECLKIVEELMVKQEQIKEVLATQSSNIEKIHIQIEEERKKVLAVDREVGKLQKEVVIIQGSLEQKLLEKHNLLLDCKVQDIDISLVLGSLEDIIEMELTETESTQATADIYEKEASIQIDYSPLREDLKALQSDKEVEAHLTLLLQQVASQENTLLKTTAPNLRAQENLKTVRDKFQESADVFEASRKEARICRQEFEQVKRRRYDAFSQCFEHISVSIDQIYKKLCRNNSAQAFLSPENPEEPYLDGISYNCVAPGKRFMPMDNLSGGEKCVAALALLFAVHSFRPAPFFVLDEVDAALDNTNIGKVSSYIKEQSQEQFQMIIISLKEEFYSKADALIGVYPEHNECMFSHVLTLDLSKYPDTEDQEGSRSHRKPRVPRVSMSPKSPQSR
modifications: full-length

What follows are molecules tested on intracellular proteome of ENR+CD and ENR organoids (assay: LC-MS/MS TMT proteomics of ENR+CD versus ENR organoids). Settings: ENR+CD versus ENR organoids, sample pairs in aggregate (n=4, 2 technical replicates from two biological donors).
Type: cell-based, C57BL/6 mice
For B1, the “Average logFC” value was −1.232. B2 was tested, and the “Average logFC” value was 1.302. In the case of B3, the “Average logFC” value is reported as −1.212. B4 was tested, and the “Average logFC” value was 1.289. In the case of B5, the “Average logFC” value is reported as 1.217. B6 was tested, and the “Average logFC” value was −1.932.

Same assay, conditions: protein abundance ratio ENR+CD versus ENR organoids, sample pair M1-1; LC-MS/MS TMT proteomics
B1 was tested, and the “M1-1 Log2 Median Normalized” value was −0.783. B2 was tested, and the “M1-1 Log2 Median Normalized” value was 1.535. B3 was tested, and the “M1-1 Log2 Median Normalized” value was −1.61. For B4, the “M1-1 Log2 Median Normalized” value was 1.314. For B5, the “M1-1 Log2 Median Normalized” value was 1.233. With B6 the “M1-1 Log2 Median Normalized” value was −1.931.

Same assay, conditions: protein abundance ratio ENR+CD versus ENR organoids, sample pair M1-2; LC-MS/MS TMT proteomics
In the case of B1, the “M1-2 Log2 Median Normalized” value is reported as −1.258. B2 was tested, and the “M1-2 Log2 Median Normalized” value was 1.138. With B3 the “M1-2 Log2 Median Normalized” value was −1.013. For B4, the “M1-2 Log2 Median Normalized” value was 1.577. In the case of B5, the “M1-2 Log2 Median Normalized” value is reported as 1.176. For B6, the “M1-2 Log2 Median Normalized” value was −0.989.

Same assay, conditions: protein abundance ratio ENR+CD versus ENR organoids, sample pair M2-1; LC-MS/MS TMT proteomics
With B1 the “M2-1 Log2 Median Normalized” value was −1.9425. In the case of B2, the “M2-1 Log2 Median Normalized” value is reported as 1.0115. B3 was tested, and the “M2-1 Log2 Median Normalized” value was −0.7435. With B4 the “M2-1 Log2 Median Normalized” value was 1.1265. With B5 the “M2-1 Log2 Median Normalized” value was 1.0935. With B6 the “M2-1 Log2 Median Normalized” value was −2.1915.

Same assay, conditions: protein abundance ratio ENR+CD versus ENR organoids, sample pair M2-2; LC-MS/MS TMT proteomics
For B1, the “M2-2 Log2 Median Normalized” value was −0.946. In the case of B2, the “M2-2 Log2 Median Normalized” value is reported as 1.523. For B3, the “M2-2 Log2 Median Normalized” value was −1.481. With B4 the “M2-2 Log2 Median Normalized” value was 1.14. For B5, the “M2-2 Log2 Median Normalized” value was 1.365. B6 was tested, and the “M2-2 Log2 Median Normalized” value was −1.967.

Same assay, conditions: up = enriched in ENR+CD, down = enriched in ENR; FDR<0.05 and log fold change cut-off
With B1 the change was “down”. In the case of B2, the change is reported as “up”. With B3 the change was “down”. For B4, the change was “up”. With B5 the change was “up”. B6 was tested, and the change was “down”.
